Results on 54 variants are retold here after the RNAGym collection of RNA variant scans (doi:10.7554/elife.80360).

B1: Twister Ribozyme (parent)
chain: AACACUGCCAAUGCCGGUCCCAAGCCCGGAUAAAAGUGGAGGGGGCGG

In this data set the parent is B1. The data set is described as follows: self-cleavage, relative activity (ratio to wild type); higher = more cleavage; co-transcriptional.
Take AACACUGCCAAUGCCGGUCCCAAGCCCGGUUGAAAGUGGAGGGGGCGG: the self-cleavage was 0.928.
Regarding AACACUGCCAAUGCCGGUCCCAAGCCCGGAUAAAAAUGGCGGGGGCGG, the self-cleavage stood at 0.115.
In the case of AACACUGCCAAUGCCGGUCCCAAGCCAGGAUAAAAGUGGAGGGGGCGU it was 0.397.
Consider AACACUGCCCAUGCCGGUCCCAAGCUCGGAUAAAAGUGGAGGGGGCGG, for which the self-cleavage is 0.508.
Turning to AACACUGCCAAUCCCGGUCCCAAGCCCGGAUAAAAGUGGAGGGGGCGU, the self-cleavage was 0.217.
Regarding AGCACUGCCAAUGCCGGUCCCAAGCCUGGAUAAAAGUGGAGGGGGCGG, the self-cleavage is 0.218.
In the case of AACACUGCCAAUGCCGGUCCCAAGCCCGGAUAAAAGUGGAGGGUGCGC it was 0.427; in that of AACCCUGCCAAUGCCGGUCCCAAGCCCGGAUAAAAGUAGAGGGGGCGG, 0.142.
The figure for CACACUGCCAAUGCCGGUCCCAAGCCCGGAUAAAGGUGGAGGGGGCGG is 0.186.
For the variant AACACUGCCAAUGCUGGUCCCAAGCCCGGAUAAAAGUGGAGGGGGCCG, the self-cleavage was determined as 0.415.
For the variant AACACUGCCAAUGCCGGUCACAAGCGCGGAUAAAAGUGGAGGGGGCGG, the self-cleavage turned out to be 0.105.
With AACACUGCCAAUGCCGGUCCCAAGCCCGGAUAAAUGUGUAGGGGGCGG, the self-cleavage amounted to 0.134.
AACACUGCCAAUGCCGGUCCCAAGCCCGGAUAAAAGUGGAGGGUGAGG: the self-cleavage turned out to be 0.476.
Consider AACACUGCCAUUGCCGGUCCCAAGCCCGGAUAAAAGUGGAGGAGGCGG, for which the self-cleavage was determined as 0.336.
Take AACACUGCCAAUUCCGGUCCCAAGCCCGGACAAAAGUGGAGGGGGCGG: the self-cleavage amounted to 0.639.
On to AUCACUACCAAUGCCGGUCCCAAGCCCGGAUAAAAGUGGAGGGGGCGG, for which the self-cleavage is 0.0893.
As for AACACUGCCAAUGCCGGUCCCAAGCCCGGAUAACAGUGUAGGGGGCGG, the self-cleavage turned out to be 0.11.
As to AACACUCCCAAUGCCGGUCCCAAGCCCGGAUAAAAGUGGAUGGGGCGG, the self-cleavage came to 0.0511.
In the case of AACACUGCCAAUGCCGGUCCCAAGCCCGGAUAAAAGUGGAGGCGGCGU it was 0.138; in that of AACGCUGCCAAUGCCGGUCCCAAGCCCGGAUAAAAAUGGAGGGGGCGG, 0.385; in that of AACACUGCCAAUGACGGUCCCAAGCCCGGAUAAAAGUGCAGGGGGCGG, 0.154.
In the case of AACACUGCCAAUGCCGGUCCCAACCCCGGAUAAUAGUGGAGGGGGCGG, the self-cleavage is 0.0578.
In the case of AACACUGCCAAUGCCGGACCCAAGCCCGGAUAAAAGUGGAGGGGACGG it was 0.32.
Take UACACAGCCAAUGCCGGUCCCAAGCCCGGAUAAAAGUGGAGGGGGCGG: the self-cleavage is 0.0513.
As to AACACAGACAAUGCCGGUCCCAAGCCCGGAUAAAAGUGGAGGGGGCGG, the self-cleavage came out at 0.104.
As for AACACUGCCAAUGCCGGUCCCAAGCCCGGAUAAAAGUGGAGGUGGCGA, the self-cleavage was 0.175.
For AACACUGCCAAUGCCGUUCCCAAGCCCGGAUAAAAGUGGAGGAGGCGG, the self-cleavage was found to be 0.13.
Turning to AACACUGCCAAUCCCGGUCCCAAGCCCGGAUAAAAGUGGAGGGGGGGG, the self-cleavage was 0.268.
Turning to AACACUGCCAAUUCCGGUCCCAAGGCCGGAUAAAAGUGGAGGGGGCGG, the self-cleavage was determined as 0.0724.
On to AACACUUCCAAUGCCGGUCCCAACCCCGGAUAAAAGUGGAGGGGGCGG, for which the self-cleavage was determined as 0.0734.
With AACACUGCCAAUGCCGGUCCCAAGCCCGGAUAAAAGUGGAAGGGGCGG, the self-cleavage came out at 0.665.
In the case of AACACUGCCAAUGCCGGUCCCAAUCCCGGAUAAAAGUGGAGGGGGAGG it was 0.0884; in that of UACACUGCCAAUGCCGGUGCCAAGCCCGGAUAAAAGUGGAGGGGGCGG, 0.0665; in that of AACACUGCCAAUGCCGGGCCCAAGCCCGGAUAAAAGGGGAGGGGGCGG, 0.0758.
Turning to AACACUGCGAAUGCCGGCCCCAAGCCCGGAUAAAAGUGGAGGGGGCGG, the self-cleavage turned out to be 0.0886.
For the variant AACACUGUCAAUGCCGGUCCCAAGCCCGGAUAAAAGUGGAGGGGGGGG, the self-cleavage came to 0.567.
Consider AACACUGCUAAUGCCGGUCCCAAGCCCGGAUACAAGUGGAGGGGGCGG, for which the self-cleavage worked out at 0.601.
In the case of AACACUGCCAAUGCGGGUCCCAGGCCCGGAUAAAAGUGGAGGGGGCGG it was 0.0653; in that of AUCACUGCCAAUGCCGGUCCCAAGCCCGGAUAAAAGUGGAGGGGGCUG, 0.23; in that of AACACUCCCAUUGCCGGUCCCAAGCCCGGAUAAAAGUGGAGGGGGCGG, 0.0693.
Turning to AACACUGUCAAUGCCGGUCCCAAGCCCGGCUAAAAGUGGAGGGGGCGG, the self-cleavage turned out to be 0.15.
Turning to AACCCUGCCAAUGCCGGUCCCAAGCCCGAAUAAAAGUGGAGGGGGCGG, the self-cleavage was determined as 0.168.
For the variant AACACUGCCAAUGCCGGUCCCAAGCGCGAAUAAAAGUGGAGGGGGCGG, the self-cleavage is 0.132.
On to AACACUGCCAAUGCCGGUCCCAAGCCCGGAUGAAAGUGGAGGAGGCGG, for which the self-cleavage amounted to 0.284.
On to AGCACUGCCAAUGCCGGUCCCAAGCCCGAAUAAAAGUGGAGGGGGCGG, for which the self-cleavage turned out to be 0.214.
Consider AACACUGCCAACGCCGGUCCCAAGCCCCGAUAAAAGUGGAGGGGGCGG, for which the self-cleavage amounted to 0.814.
As for AACACUGCCAAUGCCGGUCCGAAGCCCGGAUAAAAGUGGAGGUGGCGG, the self-cleavage was 0.0954.
For AACACUGCAAAUGACGGUCCCAAGCCCGGAUAAAAGUGGAGGGGGCGG, the self-cleavage stood at 0.61.
AACACUGCCAAUGCCGGUCACAAGGCCGGAUAAAAGUGGAGGGGGCGG: the self-cleavage was determined as 0.0839.
The figure for AACACUGCCAAUGCCGGUCCCAACCCCUGAUAAAAGUGGAGGGGGCGG is 0.0961.
AACACUGCCAAUGCCGGUCCCAAGCCCGGGUAAAAGUGCAGGGGGCGG: the self-cleavage came to 0.159.
The figure for AACACUGCCAAUGCCGGUCCCAAGCCCGGGUAAAAGUGUAGGGGGCGG is 0.191.
As to AACACUGCCAAUGCCGGUCCCAAGCCUGGAUAAAAGUGGAGGGGGCCG, the self-cleavage was found to be 0.323.
Consider AACACUGCCAAUGCCGGUCCCAAGCCCGGGUAAAAGUGGAGAGGGCGG, for which the self-cleavage came to 0.413.
